Reference: publication PMC10015519

Key:
[1] = molecular target: PF-D-Trimer (pre-fusion trimerized SARS-CoV-2 Delta spike protein ectodomain fused to the Trimer Domain) (SARS-CoV-2) (UniProt P0DTC2); assay: SEC-MALS
[2] = molecular target: PF-D-Trimer (pre-fusion trimerized SARS-CoV-2 Delta spike protein ectodomain fused to the Trimer Domain) (SARS-CoV-2) (UniProt P0DTC2); assay: reducing and non-reducing SDS-PAGE
[3] = molecular target: PF-W-Trimer (pre-fusion trimerized SARS-CoV-2 WA1 spike protein ectodomain fused to the Trimer Domain) (SARS-CoV-2) (UniProt P0DTC2); assay: SEC-MALS
[4] = molecular target: PF-W-Trimer (pre-fusion trimerized SARS-CoV-2 WA1 spike protein ectodomain fused to the Trimer Domain) (SARS-CoV-2) (UniProt P0DTC2); assay: reducing and non-reducing SDS-PAGE

PF-D-Trimer (pre-fusion trimerized SARS-CoV-2 Delta spike protein ectodomain fused to the Trimer Domain) (from UniProt P0DTC2 14-1213)
stoichiometry N [1]: 3 | stoichiometry N [2]: 3

PF-W-Trimer (pre-fusion trimerized SARS-CoV-2 WA1 spike protein ectodomain fused to the Trimer Domain) (from UniProt P0DTC2 14-1213)
stoichiometry N [3]: 3 | stoichiometry N [4]: 3
